{
  "source": "patent US9457082B2",
  "about": "“Liposome including complex of hydrophobic active ingredient and polypeptide and use of the liposome” (Samsung Electronics Co., Ltd., priority 2013, dated 2016)",
  "test_system": "HepG2 liver carcinoma cells",
  "test": "Cytotoxicity, cell viability by CCK-8 kit",
  "format": "cell-based",
  "conditions": "about 5,000 HepG2 cells, 37° C., 46 hours",
  "method": "The liposomes prepared in the same manner as in Example 1 were incubated with cells to confirm cell proliferation.\nThe liposomes prepared in the same manner as in Example 1 were added in different concentrations to about 5,000 HepG2 liver carcinoma cells, followed by being incubated at a temperature of 37° C. for 46 hours. The viability of the cultured cells was measured using a CCK-8 kit (Dojindo), and the results were shown in FIG. 7 (●: albumin, ▪: complex containing SRF and albumin).",
  "data": [
    {"substance": "albumin: albumin alone, control in the cytotoxicity test; Bovine Serum Albumin in Example 1", "values": [
      {"measurement": "toxicity (cell viability)", "result": "not toxic"}
    ]}
  ]
}
